{"source": "patent US20180214568A1", "binders": {"B1": {"name": "m906 IgG1 (antibody, V domains shown)", "VH": "EVQLVQSGAEVKKPGSSVKVSCKASGGTFTGYYMHWVRQAPGQGLEWMGWINPNSGGTNYAQKFQGRVTMTRDTSISTAYMELSRLRSDDTAVYYCARDLSSGYSGYFDYWGQGTLVTVSS", "VL": "DVVMTQSPLSLPVTPGEPASISCRSSQSLLHSNGYNFLDWYLQKPGQSPQLLIYLGSNRASGVPDRFSGSGSGTDFTLKISRVEADDVGVYYCMQSLQTPWTFGHGTKVEIKR"}, "B2": {"name": "m906PBD (antibody, V domains shown)", "VH": "B1 VH", "VL": "B1 VL", "modifications": "PBD-MC conjugated to cysteine residues of the reduced IgG (sites not given); PBD-MC (pyrrolobenzodiazepine dimer with maleimide) conjugated to cysteine residues of the reduced IgG"}, "B3": {"name": "m906 Fab (Fab, V domains shown)", "VH": "B1 VH", "VL": "B1 VL"}}, "key": {"[1]": {"molecular_target": "CD56 on the surface of human neuroblastoma cells (human) (UniProt P13591)", "assay": "cell-based or functional assay"}, "[2]": {"molecular_target": "CD56 on the surface of human neuroblastoma cells (human) (UniProt P13591)"}, "[3]": {"molecular_target": "human CD56 whole ectodomain (residues 20-720) (human) (UniProt P13591)", "assay": "BIACORE, Fab on immobilised CD56 ectodomain"}, "[4]": {"molecular_target": "human CD56 whole ectodomain (residues 20-720) (human) (UniProt P13591)", "assay": "SPR (BIACORE X100), CD56 ectodomain immobilized, Fab in flow, 1:1 model"}}}
{"binder": "B1", "values": [{"measurement": "percent reduction in CD56 cell surface expression, Kelly cells, 50 nM m906 overnight", "setting": "[1]", "value": 93, "unit": "%"}, {"measurement": "percent reduction in CD56 cell surface expression, SKNAS cells, 50 nM m906 overnight", "setting": "[1]", "value": 21, "unit": "%"}, {"measurement": "percent reduction in CD56 cell surface expression, other neuroblastoma cell lines, 50 nM m906 overnight", "setting": "[1]", "value": "> 60", "unit": "%"}]}
{"binder": "B2", "values": [{"measurement": "IC50 (read off the curve), % survival of CHP134 cells, ADC alone", "setting": "[2]", "value": 0.01, "unit": "nM"}, {"measurement": "killing of IMR5 cells (cell viability, 4 days)", "setting": "[1]", "value": 5, "unit": "pM"}]}
{"binder": "B3", "values": [{"measurement": "Kd", "setting": "[3]", "value": 4.49, "unit": "nM"}, {"measurement": "Kd", "setting": "[4]", "value": 4.5, "unit": "nM"}]}
